Assay results from publication PMC5014551.

B1: Bol3-Strep [S. cerevisiae] / Bio2 [S. cerevisiae (endogenous in yeast mitochondria)] (parent)
chain 1: MKLPQTMLRSISVKHVRWPRILTGSKLWYSTQMAMTPEEKMITDKLQQELEPEVCKVQDVSGGCGSMFAINITSKKFNGLSLIKQHQLVNRILRDDISRWHGLQLTTKKSTGKGPASS
chain 2: TKYATNAAVKSTTASSEASTLGALQYALSLDEPSHSWTKSQLKEIYHTPLLELTHAAQLQHRKWHDPTKVQLCTLMNIKSGGCSEDCKYCAQSSRNDTGLKAEKMVKVDEVIKEAEEAKRNGSTRFCLGAAWRDMKGRKSAMKRIQEMVTKVNDMGLETCVTLGMVDQDQAKQLKDAGLTAYNHNIDTSREHYSKVITTRTYDDRLQTIKNVQESGIKACTGGILGLGESEDDHIGFIYTLSNMSPHPESLPINRLVAIKGTPMAEELADPKSKKLQFDEILRTIATARIVMPKAIIRLAAGRYTMKETEQFVCFMAGCNSIFTGKKMLTTMCNGWDEDKAMLAKWGLQPMEAFKYDRS
B2: Bol1-Strep [S. cerevisiae] / Grx5 [S. cerevisiae (endogenous in yeast mitochondria)] (parent)
chain 1: MFKRAMSTDGPVARTILKRLECGFPDYKNFAFGLYNDSHKHKGHAGVQGNVSAETHFRIEMVSKKFEGLKLPQRHRMVYSLLQDEMAQANGIHALQLSLKTPQEYESKAK
chain 2: LSTEIRKAIEDAIESAPVVLFMKGTPEFPKCGFSRATIGLLGNQGVDPAKFAAYNVLEDPELREGIKEFSEWPTIPQLYVNKEFIGGCDVITSMARSGELADLLEEAQALVPEEEEETKDR
B3: Bol3-Strep [S. cerevisiae] / Lys4 [S. cerevisiae (endogenous in yeast mitochondria)] (parent)
chain 1: B1 chain 1
chain 2: LKGQNLTEKIVQSYAVNLPEGKVVHSGDYVSIKPAHCMSHDNSWPVALKFMGLGATKIKNPSQIVTTLDHDIQNKSEKNLTKYKNIENFAKKHHIDHYPAGRGIGHQIMIEEGYAFPLNMTVASDSHSNTYGGLGSLGTPIVRTDAAAIWATGQTWWQIPPVAQVELKGQLPQGVSGKDIIVALCGLFNNDQVLNHAIEFTGDSLNALPIDHRLTIANMTTEWGALSGLFPVDKTLIDWYKNRLQKLGTNNHPRINPKTIRALEEKAKIPKADKDAHYAKKLIIDLATLTHYVSGPNSVKVSNTVQDLSQQDIKINKAYLVSCTNSRLSDLQSAADVVCPTGDLNKVNKVAPGVEFYVAAASSEIEADARKSGAWEKLLKAGCIPLPSGCGPCIGLGAGLLEPGEVGISATNRNFKGRMGSKDALAYLASPAVVAASAVLGKISSPAEVLSTSEIPFSGVKTEIIENPVVEEEVNAQTEAPKQSVEILEGFPREFSGELVLCDADNINTDGIYPGKYTYQDDVPKEKMAQVCMENYDAEFRTKVHPGDIVVSGFNFGTGSSREQAATALLAKGINLVVSGSFGNIFSRNSINNALLTLEIPALIKKLREKYQGAPKELTRRTGWFLKWDVADAKVVVTEGSLDGPVILEQKVGELGKNLQEIIVKGGLEGWVKSQL
B4: Bol3-Strep [S. cerevisiae] / Grx5 [S. cerevisiae (endogenous in yeast mitochondria)] (parent)
chain 1: B1 chain 1
chain 2: B2 chain 2
B5: Bol3-Strep [S. cerevisiae] / Sdh2 [S. cerevisiae (endogenous in yeast mitochondria)] (parent)
chain 1: B1 chain 1
chain 2: TATTAAATHTPRLKTFKVYRWNPDEPSAKPHLQSYQVDLNDCGPMVLDALLKIKDEQDSTLTFRRSCREGICGSCAMNIGGRNTLACICKIDQNESKQLKIYPLPHMFIVKDLVPDLTNFYQQYKSIQPYLQRSSFPKDGTEVLQSIEDRKKLDGLYECILCACCSTSCPSYWWNQEQYLGPAVLMQAYRWLIDSRDQATKTRKAMLNNSMSLYRCHTIMNCTRTCPKGLNPGLAIAEIKKSLAFA
B6: Bol3-Strep [S. cerevisiae] / Aco1 [S. cerevisiae (endogenous in yeast mitochondria)] (parent)
chain 1: B1 chain 1
chain 2: ATVSNLTRDSKVNQNLLEDHSFINYKQNVETLDIVRKRLNRPFTYAEKILYGHLDDPHGQDIQRGVSYLKLRPDRVACQDATAQMAILQFMSAGLPQVAKPVTVHCDHLIQAQVGGEKDLKRAIDLNKEVYDFLASATAKYNMGFWKPGSGIIHQIVLENYAFPGALIIGTDSHTPNAGGLGQLAIGVGGADAVDVMAGRPWELKAPKILGVKLTGKMNGWTSPKDIILKLAGITTVKGGTGKIVEYFGDGVDTFSATGMGTICNMGAEIGATTSVFPFNKSMIEYLEATGRGKIADFAKLYHKDLLSADKDAEYDEVVEIDLNTLEPYINGPFTPDLATPVSKMKEVAVANNWPLDVRVGLIGSCTNSSYEDMSRSASIVKDAAAHGLKSKTIFTVTPGSEQIRATIERDGQLETFKEFGGIVLANACGPCIGQWDRRDIKKGDKNTIVSSYNRNFTSRNDGNPQTHAFVASPELVTAFAIAGDLRFNPLTDKLKDKDGNEFMLKPPHGDGLPQRGYDAGENTYQAPPADRSTVEVKVSPTSDRLQLLKPFKPWDGKDAKDMPILIKAVGKTTTDHISMAGPWLKYRGHLENISNNYMIGAINAENKKANCVKNVYTGEYKGVPDTARDYRDQGIKWVVIGDENFGEGSSREHAALEPRFLGGFAIITKSFARIHETNLKKQGLLPLNFKNPADYDKINPDDRIDILGLAELAPGKPVTMRVHPKNGKPWDAVLTHTFNDEQIEWFKYGSALNKIKADEKK
B7: Bol3-Strep [S. cerevisiae] / Aco2 [S. cerevisiae (endogenous in yeast mitochondria)] (parent)
chain 1: B1 chain 1
chain 2: ATHANMFPSVSKNFQTKVPPYAKLLTNLDKIKQITNNAPLTLAEKILYSHLCDPEESITSSDLSTIRGNKYLKLNPDRVAMQDASAQMALLQFMTTGLNQTSVPASIHCDHLIVGKDGETKDLPSSIATNQEVFDFLESCAKRYGIQFWGPGSGIIHQIVLENFSAPGLMMLGTDSHTPNAGGLGAIAIGVGGADAVDALTGTPWELKAPKILGVKLTGKLNGWSTPKDVITKLAGLLTVRGGTGYIVEYFGEGVSTLSCTGMATICNMGAEIGATTSTFPYQEAHKRYLQATNRAEVAEAADVALNKFNFLRADKDAQYDKVIEIDLSAIEPHVNGPFTPDLSTPISQYAEKSLKENWPQKVSAGLIGSCTNSSYQDMSRVVDLVKQASKAGLKPRIPFFVTPGSEQIRATLERDGIIDIFQENGAKVLANACGPCIGQWNREDVSKTSKETNTIFTSFNRNFRARNDGNRNTMNFLTSPEIVTAMSYSGDAQFNPLTDSIKLPNGKDFKFQPPKGDELPKRGFEHGRDKFYPEMDPKPDSNVEIKVDPNSDRLQLLEPFKPWNGKELKTNVLLKVEGKCTTDHISAAGVWLKYKGHLENISYNTLIGAQNKETGEVNKAYDLDGTEYDIPGLMMKWKSDGRPWTVIAEHNYGEGSAREHAALSPRFLGGEILLVKSFARIHETNLKKQGVLPLTFANESDYDKISSGDVLETLNLVDMIAKDGNNGGEIDVKITKPNGESFTIKAKHTMSKDQIDFFKAGSAINYIGNIRRNE
B8: Bol3-Strep [S. cerevisiae] / Lip5 [S. cerevisiae (endogenous in yeast mitochondria)] (parent)
chain 1: B1 chain 1
chain 2: SSTIRCGTSATRPIRSNALNTDSDNASVRVPVGNSTEVENATSQLTGTSGKRRKGNRKRITEFKDALNLGPSFADFVSGKASKMILDPLEKARQNTEEAKKLPRWLKVPIPKGTNYHKLKGDVKELGLSTVCEEARCPNIGECWGGKDKSKATATIMLLGDTCTRGCRFCSVKTNRTPSKPDPMEPENTAEAIKRWGLGYVVLTTVDRDDLVDGGANHLAETVRKIKQKAPNTLVETLSGDFRGDLKMVDIMAQCGLDVYAHNLETVESLTPHVRDRRATYRQSLSVLERAKATVPSLITKTSIMLGLGETDEQITQTLKDLRNIQCDVVTFGQYMRPTKRHMKVVEYVKPEKFDYWKERALEMGFLYCASGPLVRSSYKAGEAFIENVLKKRNMK

Variants of: B1
Assay: Strep-tag affinity purification with MS proteomics (spectral counts)
Details: parent: 8, read off a plot

Which screen value does the source give for chain 1 H101C here?
Its screen value is 31%.

Variants of: B2
Assay: as above
Details: parent: 47, read off a plot

With chain 1 H93C as the variant, how does the screen value read?
The screen value was 5.9%.

Variants of: B3
Assay: as above
Details: parent: 10, read off a plot

chain 1 H101C was tested. Which screen value did it give?
The screen value was 30%.

Variants of: B4
Assay: as above
Details: parent: 21, read off a plot

For chain 1 H101C, which screen value is on record?
Its screen value is 18%.

Variants of: B5
Assay: as above
Details: parent: 32, read off a plot

How did the screen value turn out when chain 1 H101C was run?
The screen value was 24%.

Variants of: B6
Assay: as above
Details: parent: 10, read off a plot

Which screen value does the source give for chain 1 H101C here?
Its screen value is 22%.

Variants of: B7
Assay: as above
Details: parent: 0, read off a plot

For chain 1 H101C, which screen value is on record?
The screen value was 11%.

Variants of: B8
Assay: as above
Details: parent: 10, read off a plot

chain 1 H101C was tested. Which screen value did it give?
Its screen value is 10%.
